Laboratory results: US20040014658A1 (PROCHON BIOTECH, published 2004)

Biological target: L37M-W144G-FGF9 (human, UniProt P31371 38-208)
Assay: ex vivo mouse femur growth with FGFR3 neutralizing Fab MSPRO-59 (inferred)
Experimental: Femoral bone cultures were performed by excising the hind limbs of wild type mice. The limbs were carefully cleaned from the surrounding tissue (skin and muscles) and the femora exposed. The femora were removed and further cleared from tissue remains and ligaments. The femora were measured for their initial length, using a binocular with an eyepiece micrometer ruler. […] In addition, the medium contains BSA (0.2%), β-glycerophosphate (1 mM) and freshly prepared ascorbic acid (50 μg/ml). The bones were cultured for 15 days. Measurements of bone length and medium replacement were performed every three days.

B1: FGFR3 of wild type mouse femora (receptor)
chain: EPPGPEQRVVRRAAEVPGPEPSQQEQVAFGSGDTVELSCHPPGGAPTGPTVWAKDGTGLVASHRILVGPQRLQVLNASHEDAGVYSCQHRLTRRVLCHFSVRVTDAPSSGDDEDGEDVAEDTGAPYWTRPERMDKKLLAVPAANTVRFRCPAAGNPTPSISWLKNGKEFRGEHRIGGIKLRHQQWSLVMESVVPSDRGNYTCVVENKFGSIRQTYTLDVLERSPHRPILQAGLPANQTAILGSDVEFHCKVYSDAQPHIQWLKHVEVNGSKVGPDGTPYVTVLKTAGANTTDKELEVLSLHNVTFEDAGEYTCLAGNSIGFSHHSAWLVVLPAEEELMETDEAGSVYAGVLSYGVVFFLFILVVAAVILCRLRSPPKKGLGSPTVHKVSRFPLKRQVSLESNSSMNSNTPLVRIARLSSGEGPVLANVSELELPADPKWELSRTRLTLGKPLGEGCFGQVVMAEAIGIDKDRTAKPVTVAVKMLKDDATDKDLSDLVSEMEMMKMIGKHKNIINLLGACTQGGPLYVLVEYAAKGNLREFLRARRPPGMDYSFDACRLPEEQLTCKDLVSCAYQVARGMEYLASQKCIHRDLAARNVLVTEDNVMKIADFGLARDVHNLDYYKKTTNGRLPVKWMAPEALFDRVYTHQSDVWSFGVLLWEIFTPGGPSPYPGIPVEELFKLLKEGHRMDKPASCTHDLYMIMRECWHAVPSQRPTFKQLVEDLDRILTVTSTDEYLDLSVPFEQYSPGGQDTPSSSSSGDDSVFTHDLLPPGPPSNGGPRT
notes: whole, on cells; Endogenous receptor in bone tissue culture
binding result: binds
